Reference: PMC9033776 (2022)
Where no end group is shown, it is not given here.

Experiments:
Experiment in all cases: ITC
[1] = molecular target: BRD3_(bromo2) domain (amino acids 306–416) (UniProt Q15059 306-416)
[2] = molecular target: BRD2_(bromo1) (amino acids 73–194) (UniProt P25440 73-194)
[3] = molecular target: BRD3_(bromo1) (amino acids 24–144) (UniProt Q15059 24-144)
[4] = molecular target: BRD2_(bromo2) domain (amino acids 455–347) (UniProt P25440 347-455)
[5] = molecular target: Bromo1-linker(GGS)5-Bromo2 of BRD4 (UniProt O60885 54-168; O60885 351-457)

BRD2_(bromo2) domain (amino acids 455–347), sequence (P25440 347-455): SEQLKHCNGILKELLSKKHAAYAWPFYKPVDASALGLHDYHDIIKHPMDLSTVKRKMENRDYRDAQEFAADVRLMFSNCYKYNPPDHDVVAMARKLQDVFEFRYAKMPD
BRD3_(bromo2) domain (amino acids 306–416), sequence (Q15059 306-416): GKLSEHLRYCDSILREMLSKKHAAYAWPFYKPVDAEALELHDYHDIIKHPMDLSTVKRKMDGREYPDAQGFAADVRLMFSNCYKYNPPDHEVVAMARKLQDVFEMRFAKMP
BRD3_(bromo1) (amino acids 24–144), sequence (Q15059 24-144): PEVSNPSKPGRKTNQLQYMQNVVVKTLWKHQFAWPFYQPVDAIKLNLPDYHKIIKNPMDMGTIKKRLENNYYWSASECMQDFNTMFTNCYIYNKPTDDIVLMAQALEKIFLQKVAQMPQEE
BRD2_(bromo1) (amino acids 73–194), sequence (P25440 73-194): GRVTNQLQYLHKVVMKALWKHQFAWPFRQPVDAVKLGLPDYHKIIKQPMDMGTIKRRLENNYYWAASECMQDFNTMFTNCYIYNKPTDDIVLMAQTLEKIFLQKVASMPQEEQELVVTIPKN

Binder: AGGK(Ac)AGK(Ac)DSGK(Ac)AKTK [tri-acetylated H2A.Z (1–15) K4acK7acK11ac peptide]
- Kd [1]: 1800 µM
- Kd [2]: 2600 µM
- Kd [3]: 1500 µM
- Kd [4]: 2000 µM

Binder: AGGK(Ac)AGK(Ac)DSGK(Ac)AKTKC (also: cross-linked via C-terminal cysteine) [H2A.ZK4ac7ac11ac peptides cross-linked by a C-terminal cysteine]
- Kd [5]: 350 µM
